We go through one molecule from PMC3315321.

In general, Kd refers to a measure of binding affinity in units of concentration. The low end stands for tighter binding, the high end for weaker binding.

This data set concerns the target T1, RIG-I (human, UniProt O95786 1-925).
T1 sequence: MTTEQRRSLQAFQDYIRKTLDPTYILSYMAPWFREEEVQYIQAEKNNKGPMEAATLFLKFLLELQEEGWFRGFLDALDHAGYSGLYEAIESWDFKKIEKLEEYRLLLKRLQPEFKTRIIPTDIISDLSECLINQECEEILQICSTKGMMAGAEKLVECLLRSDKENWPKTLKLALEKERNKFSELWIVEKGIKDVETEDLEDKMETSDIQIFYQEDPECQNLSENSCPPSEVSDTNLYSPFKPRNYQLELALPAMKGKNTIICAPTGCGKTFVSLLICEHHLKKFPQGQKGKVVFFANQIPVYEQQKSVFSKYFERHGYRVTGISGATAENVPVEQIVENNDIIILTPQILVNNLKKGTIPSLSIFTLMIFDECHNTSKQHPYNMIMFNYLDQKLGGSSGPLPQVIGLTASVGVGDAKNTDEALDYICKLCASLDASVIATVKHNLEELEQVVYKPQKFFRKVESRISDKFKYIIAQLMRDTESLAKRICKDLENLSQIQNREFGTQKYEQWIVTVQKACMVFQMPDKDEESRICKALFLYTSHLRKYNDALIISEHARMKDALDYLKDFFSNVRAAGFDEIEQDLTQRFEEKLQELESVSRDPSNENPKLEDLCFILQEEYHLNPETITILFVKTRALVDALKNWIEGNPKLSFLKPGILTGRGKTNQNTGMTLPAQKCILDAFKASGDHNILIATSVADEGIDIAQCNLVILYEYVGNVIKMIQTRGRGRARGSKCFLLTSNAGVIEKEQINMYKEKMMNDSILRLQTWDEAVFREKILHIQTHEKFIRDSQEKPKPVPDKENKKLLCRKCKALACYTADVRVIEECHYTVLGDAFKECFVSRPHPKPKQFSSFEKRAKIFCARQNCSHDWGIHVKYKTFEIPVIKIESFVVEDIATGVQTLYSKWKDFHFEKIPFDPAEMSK
The experiment in a line: filter binding.

B1: CL9 (AP-treated) (XNA)
RNA: GGGAGAGCGGAAGCGUGCUGGGCCACCAUCCGUAACUAGCUAAUACUUGUUAUCUUUUUAUUUUCAUAACCCAGAGGUCGAUGGAUCCCCCC
modifications: 2'-F U and 2'-F C (all)
Take B1: binding was put at a Kd of 37.2 nM.
